The target in assay [1] is T1, murine PD-L1 (mouse, UniProt Q9EP73 19-239, limits assumed).
T1 construct: also called mouse PD-L1
Put plainly: ELISA or FACS. In general terms: An ELISA detects its analyte on a solid surface through an enzyme-linked reagent.

For assay [2], the target named is T2, human PD-L1 expressed on cells (CHO / CHO-K1 cells transfected with full-length human PD-L1); native PD-L1 on … (human, UniProt Q9NZQ7 19-290).
T2 construct: whole, on cells; also called PD-L1 expressing CHO cell; PD-L1 transfected CHO cells
T2 sequence (Q9NZQ7 19-290): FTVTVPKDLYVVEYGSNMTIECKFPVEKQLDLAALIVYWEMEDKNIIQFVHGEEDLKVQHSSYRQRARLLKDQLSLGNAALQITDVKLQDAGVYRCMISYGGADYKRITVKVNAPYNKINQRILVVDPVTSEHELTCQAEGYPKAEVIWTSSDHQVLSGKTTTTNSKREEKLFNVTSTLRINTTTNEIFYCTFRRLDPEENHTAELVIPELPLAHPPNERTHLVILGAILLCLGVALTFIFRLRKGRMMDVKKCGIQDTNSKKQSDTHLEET
In words: FACS, CHO cells transfected with full-length human PD-L1, MFI against antibody concentration.

Assay [3] concerns the target T3, PD-L2 expressed on transfected CHO cells (Homo sapiens (Human), UniProt Q9BQ51 20-273).
T3 sequence: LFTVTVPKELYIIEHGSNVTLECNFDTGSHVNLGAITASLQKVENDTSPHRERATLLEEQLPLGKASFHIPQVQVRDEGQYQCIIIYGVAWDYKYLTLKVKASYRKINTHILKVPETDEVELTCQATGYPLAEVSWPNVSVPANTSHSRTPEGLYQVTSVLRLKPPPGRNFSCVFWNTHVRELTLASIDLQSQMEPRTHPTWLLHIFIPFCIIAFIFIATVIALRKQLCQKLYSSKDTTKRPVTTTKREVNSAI
In words: FACS, PD-L2 transfected CHO-K1 cells, single staining, concentration not shown. The protocol: 3.8. Cross-family binding assay by FACS: to examine the cross-family binding activity of the humanized antibodies, cells lines that express PD-L2 were stained with the humanized antibodies, followed by 2nd antibody staining with FITC conjugated goat anti-human IgG Fc. PD-L1 expressing cells were used as positive control. Corresponding parental cell lines were used as negative controls. The stained cells were analyzed by using a BD Biosciences FACSCanto II and FlowJo Version software.
CHO cells transfected with PD-L1 or PD-L2 were stained with humanized PD-L1 antibodies and analysis by FACS.
In general terms: Flow cytometry measures light scatter and fluorescence of single cells or particles in a stream.

In assay [4] the target is T2, human PD-L1 expressed on cells (CHO / …). In words: FACS competition on human PD-L1 expressing CHO cells; blocked ligand: mouse Fc-tagged human PD-1; bottom panel.
Assay [5] has the same target. Put plainly: FACS, native PD-L1 on human monocyte-derived dendritic cells, MFI against antibody concentration.
The next assay addresses T4, recombinant human PD-L1 (human, UniProt Q9NZQ7 19-238).
T4 construct: the whole natural entry is named
In words: SPR (ProteOn XPR36), antibody captured on Protein A, human PD-L1 as analyte, 1:1 Langmuir fit. The protocol: 3.2. […] Protein A protein (Sigma) was immobilized to a GLM sensor chip (Bio-Rad) through amine coupling. Purified antibodies were flowed over the sensor chip and captured by the Protein A. The chip was rotated 90° and washed with running buffer (1×PBS/0.01% Tween20, Bio-Rad) until the baseline is stable. Five concentrations of human PD-L1 and running buffer were flowed against the antibody flow cell at a flow rate 100 μL/min for an association phase of 240s, followed by 600s dissociation. The chip was regenerated with pH 1.7 H₃PO₄ after each run. The association and dissociation curve was fit to a 1:1 Langmuir binding model using ProteOn software.

In assay [6] the target is T5, cynomolgus monkey PD-L1 (cynomolgus monkey, UniProt G7PSE7 19-238).
T5 construct: also called cyno PD-L1
T5 sequence (G7PSE7 entry or part of it limits assumed): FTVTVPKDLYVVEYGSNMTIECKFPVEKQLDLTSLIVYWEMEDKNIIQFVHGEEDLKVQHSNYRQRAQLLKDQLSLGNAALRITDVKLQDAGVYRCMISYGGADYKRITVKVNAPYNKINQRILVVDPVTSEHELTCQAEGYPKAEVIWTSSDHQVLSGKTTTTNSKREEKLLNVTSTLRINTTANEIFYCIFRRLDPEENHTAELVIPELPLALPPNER
In words: ELISA, cynomolgus PD-L1 coated on the plate, OD450 against antibody concentration; lower panel. The protocol:
(§1) 3.7. Cross-species binding assay: the cross-reactivity of the Ab to cynomolgus and murine PD-L1 was measured by ELISA. Human, cyno and mouse PD-L1 were coated on ELISA plates, respectively. After blocking, the humanized antibodies were added into the plate and incubated at room temperature for at least 2 hours. The binding of the antibodies to the coated antigens was detected by using goat anti-human IgG Fc-HRP. The color reaction was developed using TMB substrate and stopped by 2M HCl. The ELISA plates were analyzed at 450 nm using a Molecular Device M5e microplate reader.

The target in assay [7] is T5, cynomolgus monkey PD-L1. In words: ELISA, cynomolgus PD-L1 coated on the plate, OD450 against antibody concentration; upper panel. The protocol:
as §1

Assay [8] concerns the target T2, human PD-L1 expressed on cells (CHO / …). In words: FACS competition on human PD-L1 expressing CHO cells; blocked ligand: mouse Fc-tagged human PD-1; middle panel.
Assay [9] concerns the target T1, murine PD-L1. Put plainly: ELISA, antigen coated on plate. The protocol:
as §1

In assay [10] the target is T2, human PD-L1 expressed on cells (CHO / …). Put plainly: FACS competition on human PD-L1 expressing CHO cells; blocked ligand: mouse Fc-tagged human PD-1; top panel.

T1 sequence (Q9EP73 19-239 limits assumed): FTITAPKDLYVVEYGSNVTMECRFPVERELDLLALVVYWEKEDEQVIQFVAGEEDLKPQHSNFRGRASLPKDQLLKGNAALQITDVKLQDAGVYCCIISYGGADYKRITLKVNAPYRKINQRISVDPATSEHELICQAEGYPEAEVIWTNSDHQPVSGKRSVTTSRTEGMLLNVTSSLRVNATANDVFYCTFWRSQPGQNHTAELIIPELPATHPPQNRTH
T4 sequence (Q9NZQ7 19-238 limits assumed): as the sequence (G7PSE7 entry or part of it limits assumed) above, with T33A, S34A, N62S, Q68R, R82Q, L173F, A185T, I192T, L215H counted along it

B1: 2.74.15.hAb8 (antibody, V domains shown)
VH: QVQLQESGPGLVKPSETLSLTCTVSGYSITSGYIWHWIRQPPGKGLEWIGYIHYSGTTDFNPSLESRVTISVDTSKNQFSLKLSSVTAADTAVYYCAREGRSYGGFAYWGQGTLVTVSS
VL: DIQMTQSPSSLSASVGDRVTITCKASQSVSNGVAWYQQKPGKVPKLLIYYASNRFTGVPSRFSGSGSGTDFTLTISSLQPEDVATYYCQQDYSSPFTFGQGTKLEIK
notes: Humanized antibody with a human constant region of IgG4 isotype
For B1, the binding result (in the assay with murine PD-L1 [1]; in assay [3]) was “no binding” in each case. Besides, the EC50 (usually the concentration needed to bring the measured effect to its halfway point) amounted to 1.17 nM in assay [2], 2.52 nM in assay [5] and 0.0524 nM with cynomolgus monkey PD-L1 [6]. The half-maximal inhibitory concentration (IC50) (in general, the concentration needed to halve the response being measured) in [4] was 0.196 nM. Also, the Kd (in general, a measure of binding affinity in units of concentration) with recombinant human PD-L1 is 0.0676 nM. In the assay with recombinant human PD-L1, the off-rate constant (koff) – broadly, the rate constant with which the complex falls apart – worked out at 5.48e-05 s⁻¹. Moreover, the kon (commonly a measure of how fast the partners come together) with recombinant human PD-L1 was found to be 811000 M⁻¹ s⁻¹.

B2: 2.74.15.hAb6 (antibody, V domains shown)
VH: QVQLQESGPGLVKPSETLSLTCTVTGYSITSGYIWHWIRQPAGKGLEWIGYIHYSGTTDFNPSLESRVTISVDTSKNQFSLKLSSVTAADTAVYYCAREGRSYGGFAYWGQGTLVTVSS
VL: DIQMTQSPSSLSASVGDRVTITCKASQSVSNGVAWYQQKPGKVPKLLIYYASNRFTGVPSRFSGSGSGTDFTLTISSLQPEDVATYYCQQDYSSPFTFGQGTKLEIK
notes: as for B1
As for B2, the binding result (with murine PD-L1 [1]; in assay [3]) was “no binding” in each case. Besides, the results for the EC50 (in assay [2]; with cynomolgus monkey PD-L1 [7]; in assay [5]) were 1.08 nM, 0.0238 nM and 2.39 nM, respectively. The same molecule had a 50% inhibitory concentration (IC50) in [8] of 0.157 nM. Besides, the Kd with recombinant human PD-L1 stood at 0.149 nM. The dissociation rate constant (koff) in the assay with recombinant human PD-L1 came out at 0.000172 s⁻¹. Moreover, the kon with recombinant human PD-L1 turned out to be 1.16e+06 M⁻¹ s⁻¹.

B3: 2.74.15.hAb5 (antibody, V domains shown)
VH: QVQLQESGPGLVKPSETLSLTCTVTGYSITSGYIWHWIRQPAGKGLEWIGYIHYSGTTDFNPSLESRVTISVDTSKNQFSLKLSSVTAADTAVYYCAREGRSYGGFAYWGQGTLVTVSS
VL: DIQLTQSPSFLSASVGDRVTITCKASQSVSNGVAWYQQKPGKAPKLLIYYASNRFTGVPSRFSGSGSGTEFTLTISSLQPEDFATYYCQQDYSSPFTFGQGTKLEIK
notes: as for B1
Take B3: the binding result (in the assay with murine PD-L1 [1]; in [3]) was “no binding” in each case. The half-maximal effective concentration (EC50) in assay [2] was 1.11 nM; in the assay with cynomolgus monkey PD-L1 [7], 0.026 nM; in [5], 2 nM. This molecule showed an IC50 in [8] of 0.15 nM. Besides, the Kd with recombinant human PD-L1 came to 0.106 nM. Besides, the koff in the assay with recombinant human PD-L1 came out at 0.000135 s⁻¹. Moreover, the kon in the assay with recombinant human PD-L1 was found to be 1.27e+06 M⁻¹ s⁻¹.

B4: 2.74.15.hAb4 (antibody, V domains shown)
VH: QVQLQESGPGLVKPSETLSLTCTVSGYSITSGYIWHWIRQPPGKGLEWIGYIHYSGTTDFNPSLESRVTISVDTSKNQFSLKLSSVTAADTAVYYCAREGRSYGGFAYWGQGTLVTVSA
VL: SFVMTQSPSSLSASVGDRVTITCKASQSVSNGVAWYQQKPGKVPKLLIYYASNRFTGVPSRFSGSGSGTDFTLTISSLQPEDVATYYCQQDYSSPFTFGSGTELEIK
notes: as for B1
Take B4: the EC50 in [2] worked out at 1.53 nM; in the assay with cynomolgus monkey PD-L1 [7], 0.00577 nM; in [5] it was 1.82 nM. For the same molecule, the binding result (in assay [3]; with murine PD-L1 [9]) was “no binding” throughout. Further, the Kd in the assay with recombinant human PD-L1 came out at 0.0389 nM. For the same molecule, the koff with recombinant human PD-L1 came out at 2.83e-05 s⁻¹. Moreover, the kon in the assay with recombinant human PD-L1 was 728000 M⁻¹ s⁻¹. The molecule also yielded an IC50 in assay [10] of 0.622 nM.

B5: 2.74.15.hAb7 (antibody, V domains shown)
VH: QVQLQESGPGLVKPSETLSLTCTVSGYSITSGYIWHWIRQPPGKGLEWIGYIHYSGTTDFNPSLESRVTISVDTSKNQFSLKLSSVTAADTAVYYCAREGRSYGGFAYWGQGTLVTVSS
VL: DIQLTQSPSFLSASVGDRVTITCKASQSVSNGVAWYQQKPGKAPKLLIYYASNRFTGVPSRFSGSGSGTEFTLTISSLQPEDFATYYCQQDYSSPFTFGQGTKLEIK
notes: as for B1
As for B5, the binding result (with murine PD-L1 [1]; in assay [3]) was “no binding” each time. For the same molecule, the EC50 in assay [2] was 1.18 nM; in assay [5], 2.53 nM; with cynomolgus monkey PD-L1 [6] it was 0.000721 nM. The concentration for half-maximal inhibition (IC50) in assay [4] was determined as 0.199 nM. In addition, the Kd in the assay with recombinant human PD-L1 came out at 0.155 nM. Moreover, the koff in the assay with recombinant human PD-L1 was determined as 0.000146 s⁻¹. The kon with recombinant human PD-L1 came to 938000 M⁻¹ s⁻¹.

The values are drawn from patent publication US20180162944A1 (WUXI BIOLOGICS SHANGHAI, published 2018).
